From article PMC4650713, “Crystal structure of Bax bound to the BH3 peptide of Bim identifies important contacts for interaction” (Cell Death & Disease, 2015)
Each block holds one substance with its values, some of them ahead of it.

Assays:
[1] = biological target: BaxΔC21 (UniProt Q07812); assay: SPR; competition in solution: BaxΔC21 at 25 nM incubated with increasing concentrations of BH3 peptide in 10 mM HEPES, 150 mM NaCl, 3.4 mM EDTA, 0.005% Tween-20, pH 7.4 with 0.5% octylglucoside, injected onto a CM5 chip with immobilised BimBH3; Bim4E channel subtracted; IC50
Chain of BaxΔC21 (Q07812 1-171 C62S/C126S): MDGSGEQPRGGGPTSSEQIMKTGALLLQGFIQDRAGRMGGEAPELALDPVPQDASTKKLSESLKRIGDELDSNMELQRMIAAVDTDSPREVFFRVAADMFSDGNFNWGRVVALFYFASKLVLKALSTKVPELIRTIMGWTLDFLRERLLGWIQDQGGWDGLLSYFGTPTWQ

[2] = biological target: BaxΔC21 (UniProt Q07812)

fold loss of affinity against BimBH3 [1]: 3 fold
Substance: BimBH3 P144A/E145A (peptide)

IC50 [1]: 2400 nM | fold weaker binding than BimBH3 [1]: 40 fold | core/latch dimer formation of BaxΔC21 triggered by the peptide with CHAPS (gel filtration) [2]: > 50%
Substance: BimBH3 E145K (peptide)

fold tighter binding than BidBH3 [1]: 5 fold
Substance: BimBH3 peptide
